Source: patent publication US20240124586A1 (WUXI BIOLOGICS IRELAND, published 2024)

B1: W3438-T3U4.E17-1.uIgG4.SP, bispecific anti-CD3 x CD19 (bispecific antibody)
heavy 1: QVQLVQSGAEVKKPGSSVKVSCKASGFAFTDYYIHWVRQAPGQGLEWMGWISPGNVNTKYNENFKGRVTITADKSTSTAYMELSSLRSEDTAVYYCARDGYSLYYFDYWGQGTLVTVLEDLKNVFPPEVAVFEPSEAEISHTQKATLVCLATGFYPDHVELSWWVNGKEVHSGVCTDPQPLKEQPALQDSRYALSSRLRVSATFWQNPRNHFRCQVQFYGLSENDEWTQDRAKPVTQIVSAEAWGRYGPPCPPCPAPEFLGGPSVFLFPPKPKDTLMISRTPEVTCVVVDVSQEDPEVQFNWYVDGVEVHNAKTKPREEQFNSTYRVVSVLTVLHQDWLNGKEYKCKVSNKGLPSSIEKTISKAKGQPREPQVYTLPPCQEEMTKNQVSLWCLVKGFYPSDIAVEWESNGQPENNYKTTPPVLDSDGSFFLYSRLTVDKSRWQEGNVFSCSVMHEALHNHYTQKSLSLSLGK
light 1: DIVMTQSPDSLAVSLGERATINCKSSQSLLNSRTRKNYLAWYQQKPGQPPKLLIYWASTRQSGVPDRFSGSGSGTDFTLTISSLQAEDVAVYYCTQSHTLRTFGGGTKVEIKPDIQNPDPAVYQLRDSKSSDKSVCLFTDFDSQTQVSQSKDSDVYITDKCVLDMRSMDFKSNSAVAWSQKSDFACANAFQNSIIPEDTFFPSPESS
heavy 2: QMQLVQSGPEVKKPGTSVKVSCKASGYAFTSYNMYWVRQARGQRLEWIGYIDPYNGDTTYNQKFKGRVTITRDMSTSTAYMELSSLRSEDTAVYYCLTTAYAMDYWGQGTLVTVSSASTKGPSVFPLAPCSRSTSESTAALGCLVKDYFPEPVTVSWNSGALTSGVHTFPAVLQSSGLYSLSSVVTVPSSSLGTKTYTCNVDHKPSNTKVDKRVESKYGPPCPPCPAPEFLGGPSVFLFPPKPKDTLMISRTPEVTCVVVDVSQEDPEVQFNWYVDGVEVHNAKTKPREEQFNSTYRVVSVLTVLHQDWLNGKEYKCKVSNKGLPSSIEKTISKAKGQPREPQVCTLPPSQEEMTKNQVSLSCAVKGFYPSDIAVEWESNGQPENNYKTTPPVLDSDGSFFLVSRLTVDKSRWQEGNVFSCSVMHEALHNHYTQKSLSLSLGK
light 2: DIQLTQSPSFLSASVGDRVTITCSASSTVNYMHWYQQKPGKAPKLLIYSTSNLASGVPSRFSGSGSGTEFTLTISSLQPEDFATYYCHQWSSYPYTFGQGTKLEIKRTVAAPSVFIFPPSDEQLKSGTASVVCLLNNFYPREAKVQWKVDNALQSGNSQESVTEQDSKDSTYSLSSTLTLSKADYEKHKVYACEVTHQGLSSPVTKSFNRGEC
notes: also called E17-Design_2-QQQQ (IgG4); E17-IgG4; copies: 1 + 1 + 1 + 1
B2: W3248-U6T5.G25-1.uIgG4.SP, bispecific anti-PD-1 x CTLA-4 (bispecific antibody)
heavy: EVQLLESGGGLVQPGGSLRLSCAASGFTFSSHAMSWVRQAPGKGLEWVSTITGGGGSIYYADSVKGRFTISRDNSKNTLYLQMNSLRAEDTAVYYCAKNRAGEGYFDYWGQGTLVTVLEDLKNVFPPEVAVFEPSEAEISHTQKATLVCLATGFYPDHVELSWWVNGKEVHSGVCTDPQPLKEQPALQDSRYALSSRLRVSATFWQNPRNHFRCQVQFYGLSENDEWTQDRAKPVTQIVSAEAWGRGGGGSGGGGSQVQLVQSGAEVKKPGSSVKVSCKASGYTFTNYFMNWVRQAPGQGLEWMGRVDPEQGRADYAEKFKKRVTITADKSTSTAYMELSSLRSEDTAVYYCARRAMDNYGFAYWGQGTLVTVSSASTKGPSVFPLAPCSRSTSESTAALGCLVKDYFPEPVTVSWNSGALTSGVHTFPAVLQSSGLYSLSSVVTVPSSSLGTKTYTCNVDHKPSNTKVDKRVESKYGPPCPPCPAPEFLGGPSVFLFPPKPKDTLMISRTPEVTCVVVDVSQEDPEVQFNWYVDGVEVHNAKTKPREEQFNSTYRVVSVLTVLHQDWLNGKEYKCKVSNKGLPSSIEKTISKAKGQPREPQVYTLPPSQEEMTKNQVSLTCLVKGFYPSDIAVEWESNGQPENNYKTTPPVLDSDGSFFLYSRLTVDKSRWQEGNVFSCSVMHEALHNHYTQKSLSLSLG
light 1: SYELTQPLSVSVALGQTARITCGGDNIGNKDVHWYQQKPGQAPVLVIYRDSNRPSGIPEGFSGSNSGNTATLTISRAQAGDEADYYCQVWDSIWVFGGGTKLTVLPDIQNPDPAVYQLRDSKSSDKSVCLFTDFDSQTQVSQSKDSDVYITDKCVLDMRSMDFKSNSAVAWSQKSDFACANAFQNSIIPEDTFFPSPESS
light 2: EIVLTQSPDFQSVTPKEKVTITCSANSALSYMYWYQQKPDQSPKLWVHGTSNLASGVPSRFSGSGSGTDFTLTINSLEAEDAATYYCHHWSNTQWTFGGGTKVEIKRTVAAPSVFIFPPSDEQLKSGTASVVCLLNNFYPREAKVQWKVDNALQSGNSQESVTEQDSKDSTYSLSSTLTLSKADYEKHKVYACEVTHQGLSSPVTKSFNRGEC
notes: IgG4 (S228P); also called WBP3248-U6T5.G25-1-uIgG4.SP; U6T5.G25.IgG4

Assays:
[1] = target: T1, Cynomolgus CD3 epsilon protein (W331-cynoPro1.ECD.His) (cynomolgus, UniProt Q95LI5 22-117); assay: ELISA, cynomolgus CD3 epsilon protein coated
T1 construct: extracellular domain; Bought protein; also called Acro #CDE-C5226
T1 sequence (looked up): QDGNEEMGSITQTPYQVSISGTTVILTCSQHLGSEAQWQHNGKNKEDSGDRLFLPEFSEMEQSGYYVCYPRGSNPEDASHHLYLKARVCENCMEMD
Method: The binding of the CD3×CD19 bispecific antibody to Cynomolgus CD3 were tested by protein binding ELISA. […] All wells were washed one time with 300 μL per well of PBS/0.5‰ Tween-20 (v/v). The wells were then blocked for one hour at room temperature with 200 μL per well of PBS/2% BSA (BOVOGEN, #BSAS) and washed three times with 300 μL per well of PBS/0.5‰ Tween-20 (v/v). For the primary antibody binding, CD3×CD19 bispecific antibody serially diluted in PBS/2% BSA were added to the relevant wells and incubated at room temperature for two hours. […] Plates were incubated at room temperature for one hour, followed by six washes as described above. […] The extent of bispecific antibody binding to Cynomolgus CD3 was determined by measuring the OD450 absorbance using the SpectraMax® M5e microplate reader. Wherever appropriate, binding EC50 values were obtained by the four-parameter non-linear regression analysis using GraphPad Prism5 software.

[2] = target: T2, human CD19 on CD19+ B cell lines (Ramos, Raji) (human, UniProt P15391 20-556); assay: affinity by flow cytometry on Ramos cells (bound/free versus bound)
T2 construct: whole, on cells; also called CD19+ Ramos cells; CD19+ Raji cells
T2 sequence (looked up): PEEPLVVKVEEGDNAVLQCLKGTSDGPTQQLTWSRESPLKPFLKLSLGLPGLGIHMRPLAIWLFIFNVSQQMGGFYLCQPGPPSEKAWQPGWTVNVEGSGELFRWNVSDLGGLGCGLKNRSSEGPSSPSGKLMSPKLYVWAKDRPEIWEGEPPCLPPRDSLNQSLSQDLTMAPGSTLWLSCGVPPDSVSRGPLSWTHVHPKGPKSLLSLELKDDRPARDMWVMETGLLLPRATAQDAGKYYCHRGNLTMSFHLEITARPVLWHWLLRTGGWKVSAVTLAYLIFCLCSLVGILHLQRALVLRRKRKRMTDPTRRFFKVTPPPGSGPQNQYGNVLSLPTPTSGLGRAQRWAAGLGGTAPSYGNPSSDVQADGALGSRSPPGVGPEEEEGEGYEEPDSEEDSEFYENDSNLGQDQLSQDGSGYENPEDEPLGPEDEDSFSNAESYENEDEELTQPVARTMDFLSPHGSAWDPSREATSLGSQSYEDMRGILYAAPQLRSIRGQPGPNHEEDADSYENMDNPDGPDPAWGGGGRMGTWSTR
Method: Binding affinity to CD3 and CD19 was determined by flow cytometry using Jurkat and Ramos cells, respectively. The cells were transferred in to 96-well U-bottom plates (BD) at a density of 5×10⁴ cells/well. Antibodies to be tested were 1:2-fold serially diluted in 1% 1×PBS/1% BSA and incubated with cells at 4° C. for 1 hr. Then, the plates were centrifuged at 1500 rpm for 4 mins and the supernatant discarded. […] The cells were washed once and re-suspended in 100 μL 1×PBS/1% BSA. Fluorescence intensity was measured by flow cytometry (BD Canto II) and analyzed by FlowJo. Fluorescence intensity was converted to bound molecules/cell based on the quantitative beads (Quantum™ MESF Kits, Bangs Laboratories). KD was calculated by Graphpad Prism5.
The bound IgG/free IgG versus bound IgG was plotted in FIGS. 46A and 46B.

[3] = target: T3, ECD of human CTLA-4 (SPR analyte) (human, UniProt P16410 36-161); assay: SPR (Biacore T200), antibody captured by anti-human Fc, CTLA-4 ECD as analyte
T3 construct: extracellular domain
Method: SPR technology was used to measure the on-rate constant (ka) and off-rate constant (kd) of the antibodies to ECD of CTLA-4 or PD-1. The affinity constant (KD) was consequently determined.
Biacore T200, Series S Sensor Chip CM5, Amine Coupling Kit, and 10×HBS-EP were purchased from GE Healthcare. Goat anti-human IgG Fc antibody was purchased from Jackson ImmunoResearch Lab (catalog number 109-005-098). In immobilization step, the activation buffer was prepared by mixing 400 mM EDC and 100 mM NHS immediately prior to injection. The CM5 sensor chip was activated for 420 s with the activation buffer. 30 μg/mL of goat anti-human IgG Fcγ antibody in 10 mM NaAc (pH 4.5) was then injected to Fc1-Fc4 channels for 200 s at a flow rate of 5 μL/min. The chip was deactivated by 1 M ethanolamine-HCl (GE). Then the antibodies were captured on the chip. Briefly, 4 μg/mL antibodies in running buffer (HBS-EP+) was injected individually to Fc3 channel for 30 s at a flow rate of […]. […] Regeneration buffer (10 mM Glycine pH 1.5) was injected at 10 μL min for 30 s following every dissociation phase.

[4] = target: T4, biotinylated human CTLA-4.ECD.hFc (W316-hPro1.ECD.hFc.Biotin) (human, UniProt P16410 36-161, biotin-labelled (site not stated)); assay: competitive FACS, biotinylated CTLA-4.ECD.hFc on human CD80 CHO-K1 cells (competitor: CD80)
T4 construct: extracellular domain; In-house protein; also called hCTLA-4.ECD.hFc-Biotin; human CTLA-4 protein
Method: Competitive FACS was used to test whether the antibodies could block human or cynomolgus CTLA-4 binding to hCD80 on cell surface. […] Then the mixtures of antibody and CTLA-4 were added to the cells and incubated for 1 hour at 4° C. The cells were washed two times with 200 μl FACS washing buffer (DPBS containing 1% BSA). Streptavidin PE (BD Pharmingen-554061) 1 to 600 diluted in FACS buffer was added to the cells and incubated at 4° C. for 1 hour. Additional washing steps were performed two times with 200 μL FACS washing buffer followed by centrifugation at 1500 rpm for 4 minutes at 4° C. Finally, the cells were resuspended in 100 μL FACS washing buffer and fluorescence values were measured by flow cytometry and analyzed by FlowJo.

[5] = target: T5, human PD-1 ECD mouse Fc fusion (W305-hPro1.ECD.mFc) (human, UniProt Q15116 25-170); assay: dual binding ELISA, PD-1 ECD.mFc coated, detection with biotinylated CTLA-4 ECD.hFc; second antibody named, second value; PD-1 coated, biotinylated CTLA-4 detection
T5 construct: extracellular domain; In-house protein; also called hPD-1-ECD; human PD-1 coated on the plate
Method: In order to test whether the bispecific antibodies could bind to both hPD-1 and hCTLA-4, an ELISA assay was developed as below. A 96-well ELISA plate (Nunc MaxiSorp, ThermoFisher) was coated overnight at 4° C. with 0.5 μg/ml antigen-1 (hPD-1-ECD, W305-hPro1.ECD.mFc) in carbonate-bicarbonate buffer. After a 1 hour blocking step with 2% (w/v) bovine serum albumin (Pierce) dissolved in PBS, serial dilutions of the different PD-1×CTLA-4 bispecific antibodies in PBS containing 2% BSA PBS were incubated on the plates for 1 hour at room temperature. Following the incubation, plates were washed three times with 300 μL per well of PBS containing 0.5% (v/v) Tween 20. […] After washing the plates three times, Streptavidin-HRP (Lifetechnologies, #SNN1004) (1:20000 diluted) was added and incubated on the plates for 1 hour at room temperature. After washing six times with […] per well of PBS containing 0.5% (v/v) Tween 20, 100 μL tetramethylbenzidine (TMB) substrate was added for the detection per well. The reaction was stopped after approximately 5 minutes through the addition of […] per well of 2 M HCl. The absorbance of the wells was measured at 450 nm with a multiwall plate reader (SpectraMax® M5e).

T4 sequence (P16410 36-161): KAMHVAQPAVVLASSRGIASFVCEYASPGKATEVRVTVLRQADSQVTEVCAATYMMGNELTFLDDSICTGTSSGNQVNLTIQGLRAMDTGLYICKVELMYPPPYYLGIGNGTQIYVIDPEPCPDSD
T3 sequence (P16410 36-161): as above
T5 sequence (Q15116 25-170): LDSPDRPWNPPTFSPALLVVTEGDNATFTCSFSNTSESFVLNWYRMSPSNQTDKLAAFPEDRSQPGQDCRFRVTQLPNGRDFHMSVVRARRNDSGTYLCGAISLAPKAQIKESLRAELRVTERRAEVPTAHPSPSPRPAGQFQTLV

Binder	EC50 [1]	Kd [2]	Kd [3]	IC50 [4]	EC50 [5]
B1	40 pM	23000 pM	–	–	–
B2	–	–	357 pM	758 pM	71 pM
